Data on six proteins can be found in PMC8113546.

Data set [1] is described as follows: B7H3 IHC of 4T1 B7H3-WT tumours. The conditions noted are these: glycan changed form; control: PBS.
Data set [2] is described as follows: flow cytometry of cell-surface B7H3, 4T1-B7H3KO. Conditions: glycan lost; control: B7H3-WT. On the technique in general: In flow cytometry, cells or beads pass a laser one at a time.
The nature of data set [3]: IP of B7H3-WT-Flag, ubiquitin immunoblot. The conditions noted are these: glycan lost; control: untreated.
Data set [4] can be described thus: CHX chase, remaining B7H3 by immunoblot (half-life). The conditions noted are these: glycan lost.
The nature of data set [5]: flow cytometry of cell-surface B7H3. The conditions noted are these: glycan lost.
The nature of data set [6]: immunoblot, MDA-MB-231 and HCC1806. Conditions: glycan changed form; control: control sgRNA.
A short description of data set [7]: flow cytometry of cell-surface B7H3, B7H3-WT cells. The conditions noted are these: glycan changed form; control: control sgRNA.
Data set [8] can be described thus: flow cytometry of cell-surface B7H3, MDA-MB-231. Conditions: glycan changed form; control: untreated.

B1: mouse B7H3: 2F-Fuc (protein)
parent chain: MLRGWGGPSVGVCVRTALGVLCLCLTGAVEVQVSEDPVVALVDTDATLRCSFSPEPGFSLAQLNLIWQLTDTKQLVHSFTEGRDQGSAYSNRTALFPDLLVQGNASLRLQRVRVTDEGSYTCFVSIQDFDSAAVSLQVAAPYSKPSMTLEPNKDLRPGNMVTITCSSYQGYPEAEVFWKDGQGVPLTGNVTTSQMANERGLFDVHSVLRVVLGANGTYSCLVRNPVLQQDAHGSVTITGQPLTFPPEALWVTVGLSVCLVVLLVALAFVCWRKIKQSCEEENAGAEDQDGDGEGSKTALRPLKPSENKEDDGQEIA
For B1, the expression_or_secretion entry in data set [1] is reported as “decreases”.

B2: mouse B7H3: B7H3-4NQ (protein)
parent chain: B1 parent chain
As for B2, the localisation_or_trafficking result in data set [2] was “abolishes”.

B3: B7H3: tunicamycin (TM) (protein)
parent chain: MLRRRGSPGMGVHVGAALGALWFCLTGALEVQVPEDPVVALVGTDATLCCSFSPEPGFSLAQLNLIWQLTDTKQLVHSFAEGQDQGSAYANRTALFPDLLAQGNASLRLQRVRVADEGSFTCFVSIRDFGSAAVSLQVAAPYSKPSMTLEPNKDLRPGDTVTITCSSYQGYPEAEVFWQDGQGVPLTGNVTTSQMANEQGLFDVHSILRVVLGANGTYSCLVRNPVLQQDAHSSVTITPQRSPTGAVEVQVPEDPVVALVGTDATLRCSFSPEPGFSLAQLNLIWQLTDTKQLVHSFTEGRDQGSAYANRTALFPDLLAQGNASLRLQRVRVADEGSFTCFVSIRDFGSAAVSLQVAAPYSKPSMTLEPNKDLRPGDTVTITCSSYRGYPEAEVFWQDGQGVPLTGNVTTSQMANEQGLFDVHSVLRVVLGANGTYSCLVRNPVLQQDAHGSVTITGQPMTFPPEALWVTVGLSVCLIALLVALAFVCWRKIKQSCEEENAGAEDQDGEGEGSKTALQPLKHSDSKEDDGQEIA
Turning to B3, the “other: K48 ubiquitination” value in data set [3] was “increases”. Also, the degradation_or_half_life result in data set [4] (control: untreated) was “decreases”. Further, the localisation_or_trafficking result in data set [5] (control: untreated) is given as “decreases”.

B4: B7H3: FUT8 knockout (protein)
parent chain: B3 parent chain
Regarding B4, the expression_or_secretion result in data set [6] is reported as “decreases”. In data set [7], the localisation_or_trafficking result was “decreases”.

B5: B7H3: B7H3-8NQ (protein)
parent chain: B3 parent chain
As to B5, the degradation_or_half_life entry in data set [4] (control: B7H3-WT) is listed as “decreases”. Besides, the localisation_or_trafficking entry in data set [5] (control: B7H3-WT) was “abolishes”.

B6: B7H3: 2F-Fuc (protein)
parent chain: B3 parent chain
As for B6, the localisation_or_trafficking result in data set [8] is given as “decreases”.
